{
  "source": "patent US8293494",
  "key": {"[1]": {"molecular_target": "histone H3 dimethylated at lysine 9 (core histones or nucleosomes from HeLa cells), P68431"}, "[2]": {"molecular_target": "histone H3 monomethylated at lysine 9 (core histones or nucleosomes from HeLa cells), P68431"}, "[3]": {"molecular_target": "histone H3 trimethylated at lysine 9 (core histones or nucleosomes from HeLa cells), P68431"}},
  "data": [
    {"protein": "recombinant JMJD2C (aa 12-349) (protein) PSCKIMTFRPSMEEFREFNKYLAYMESKGAHRAGLAKVIPPKEWKPRQCYDDIDNLLIPAPIQQMVTGQSGLFTQYNIQKKAMTVKEFRQLANSGKYCTPRYLDYEDLERKYWKNLTFVAPIYGADINGSIYDEGVDEWNIARLNTVLDVVEEECGISIEGVNTPYLYFGMWKTTFAWHTEDMDLYSINYLHFGEPKSWYAIPPEHGKRLERLAQGFFPSSSQGCDAFLRHKMTLISPSVLKKYGIPFDKITQEAGEFMITFPYGYHAGFNHGFNCAESTNFATVRWIDYGKVAKLCTCRKDMVKISMDIFVRKFQPDRYQLWKQGKDIYTIDHTKPT", "values": [
      {"measurement": "in vitro demethylation assay, Western blot with α-dimethyl H3K9", "setting": "[1]", "result": "the methylation status of mono- and dimethyl H3K9 is not altered"},
      {"measurement": "in vitro demethylation assay, Western blot with α-monomethyl H3K9", "setting": "[2]", "result": "the methylation status of mono- and dimethyl H3K9 is not altered"},
      {"measurement": "in vitro demethylation assay, Western blot with α-trimethyl H3K9", "setting": "[3]", "result": "Recombinant JMJD2C very efficiently demethylates trimethyl H3K9 on both core histones and nucleosomes in vitro"}
    ]},
    {"protein": "mutant JMJD2C H190A (aa 12-349) (protein) PSCKIMTFRPSMEEFREFNKYLAYMESKGAHRAGLAKVIPPKEWKPRQCYDDIDNLLIPAPIQQMVTGQSGLFTQYNIQKKAMTVKEFRQLANSGKYCTPRYLDYEDLERKYWKNLTFVAPIYGADINGSIYDEGVDEWNIARLNTVLDVVEEECGISIEGVNTPYLYFGMWKTTFAWATEDMDLYSINYLHFGEPKSWYAIPPEHGKRLERLAQGFFPSSSQGCDAFLRHKMTLISPSVLKKYGIPFDKITQEAGEFMITFPYGYHAGFNHGFNCAESTNFATVRWIDYGKVAKLCTCRKDMVKISMDIFVRKFQPDRYQLWKQGKDIYTIDHTKPT", "values": [
      {"measurement": "in vitro demethylation assay, Western blot with α-trimethyl H3K9", "setting": "[3]", "result": "the enzymatically impaired mutant JMJD2C H190A fails to demethylate"}
    ]}
  ]
}
